“And” between values parts separate entries of the source, which are not always exact repeats. Equal entries are not always repeated.
T1: recombinant histidine-tagged canine interleukin-13 (cIL-13) (canine, UniProt Q9N0W9 19-131, N-linked glycans attached to asparagine residues at positions 38, 48, 56, and 71)
T1 construct: mature; Secreted from ExpiCHO-S cells and purified by IMAC; also called canine IL-13; Canis Interleukin-13
T1 sequence: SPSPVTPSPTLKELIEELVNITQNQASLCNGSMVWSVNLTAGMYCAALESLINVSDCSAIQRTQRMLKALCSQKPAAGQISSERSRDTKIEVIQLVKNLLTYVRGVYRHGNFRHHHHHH

B1: Chimeric 32A10 CO (antibody, V domains shown)
VH: QVQLKQSGPELVKPGASVKVSCKTSGYSFTDYPIYWVRQSHGESLEWIGYIDPYNGGTTYNQNFKDKATLTVDKSSSTAFMHLYSLTSEDSAVYFCATAVVATDVMENWGQGTSVTVSS
VL: DIVLTQSQKFMSTSVGDRVSITCKASQNVRNAVAWFQQKPGQSPKALIYLASNRYTGVPDHFTGSGSGTDFTLTISNVQSEDLADYFCLQHWNYPLTFGAGTKLELK
notes: also called Chimeric antibody (CO type)
B2: Ab4 (antibody, V domains shown)
VH: EVQLVQSGAEVKKPGASVKVSCKTSGYTFIDYPMYWVRQAPGAGLEWMGYIDPYNGATSYNQNFKGRVTLTADKSTSTAYMELSSLRAGDIAVYYCATAVVATDVMENWGQGTLVTVSS
VL: EIVMTQSPASLSLSQEERVTITCRASQNVRNALAWYQQKPGQAPKLLIYLTSNRYTGVPSRFSGSGSGTDFTFTISSLEPEDVAVYYCLQHWNYPLTFGAGTKVELK
notes: Caninized antibody
B3: Ab10 (antibody, V domains shown)
VH: EVQLVQSGAEVKKPGASVKVSCKTSGYTFIDYPMYWVRQAPGAGLEWMGYIDPYNGATSYNQNFKGRVTLTADKSTSTAYMELSSLRAGDIAVYYCATAVVATDVMENWGQGTLVTVSS
VL: DIVMTQTPLSLSVSPGETASISCKASQNLRNALAWFRQKPGQSPQALIYLVSNRYPGVPDRFSGSGSGTDFTLRISRVEAEDTGVYYCLQHWQYPLTFGAGTKVELK
notes: Caninized antibody
B4: Ab22 (antibody, V domains shown)
VH: EVQLVQSGAEVVKPGASVKVSCKTSGYSFTDYPIYWVRQAPGAGLEWIGYIDPYNGGTTYNQNFKDRVTLTADKSTSTAYMELSSLRAGDIAVYYCATAVVATDVMENWGQGTLVTVSS
VL: DIVLTQTPLSLSVSPGETASISCKASQNVRNAVAWFRQKPGQSPQALIYLASNRYTGVPDRFSGSGSGTDFTLRISRVEAEDTGDYFCLQHWNYPLTFGAGTKVELK
notes: Caninized antibody
B5: Ab2 (antibody, V domains shown)
VH: EVQLVQSGAEVKKPGASVKVSCKTSGYTFIDYPMYWVRQAPGAGLEWMGYIDPYNGATSYNQKFQGRVTLTADTSTSTAYMELSSLRAGDIAVYYCARAVVATDVMENWGQGTLVTVSS
VL: EIVLTQSPASLSLSQEERVTITCKASQNVRNAVAWFQQKPGQAPKALIYLASNRYTGVPSRFSGSGSGTDFTLTISSLEPEDVADYFCLQHWNYPLTFGAGTKVELK
notes: Caninized antibody
B6: Ab21 (antibody, V domains shown)
VH: EVQLVQSGAEVVKPGASVKVSCKTSGYSFTDYPIYWVRQAPGAGLEWIGYIDPYNGGTTYNQNFKDRVTLTADKSTSTAYMELSSLRAGDIAVYYCATAVVATDVMENWGQGTLVTVSS
VL: EIVLTQSPASLSLSQEERVTITCKASQNVRNAVAWFQQKPGQAPKALIYLASNRYTGVPSRFSGSGSGTDFTLTISSLEPEDVADYFCLQHWNYPLTFGAGTKVELK
notes: Caninized antibody
B7: Ab6 (antibody, V domains shown)
VH: EVQLVQSGAEVVKPGASVKVSCKTSGYSFTDYPIYWVRQAPGAGLEWIGYIDPYNGGTTYNQNFKDRVTLTADKSTSTAYMELSSLRAGDIAVYYCATAVVATDVMENWGQGTLVTVSS
VL: EIVMTQSPASLSLSQEERVTITCRASQSVRSALAWYQQKPGQAPKLLIYGTSNRYTGVPSRFSGSGSGTDFTFTISSLEPEDVAVYYCLQHWSYPLTFGAGTKVELK
notes: Caninized antibody
B8: Ab14 (antibody, V domains shown)
VH: EVQLVQSGAEVKKPGASVKVSCKTSGYTFIDYPMYWVRQAPGAGLEWMGYIDPYNGATSYNQKFQGRVTLTADTSTSTAYMELSSLRAGDIAVYYCARAVVATDVMENWGQGTLVTVSS
VL: DIVMTQTPLSLSVSPGETASISCKASQSLRSALAWFRQKPGQSPQRLIYLVSNRYPGVPDRFSGSGSGTDFTLRISRVEAEDTGVYYCLQHWQFPLTFGAGTKVELK
notes: Caninized antibody
B9: Ab24 (antibody, V domains shown)
VH: EVQLVQSGAEVKKPGASVKVSCKTSGYTFIDYPMYWVRQAPGAGLEWMGYIDPYNGATSYNQNFKGRVTLTADKSTSTAYMELSSLRAGDIAVYYCATAVVATDVMENWGQGTLVTVSS
VL: DIVLTQTPLSLSVSPGETASISCKASQNVRNAVAWFRQKPGQSPQALIYLASNRYTGVPDRFSGSGSGTDFTLRISRVEAEDTGDYFCLQHWNYPLTFGAGTKVELK
notes: Caninized antibody
B10: Ab12 (antibody, V domains shown)
VH: EVQLVQSGAEVVKPGASVKVSCKTSGYSFTDYPIYWVRQAPGAGLEWIGYIDPYNGGTTYNQNFKDRVTLTADKSTSTAYMELSSLRAGDIAVYYCATAVVATDVMENWGQGTLVTVSS
VL: DIVMTQTPLSLSVSPGETASISCKASQSLRSALAWFRQKPGQSPQRLIYLVSNRYPGVPDRFSGSGSGTDFTLRISRVEAEDTGVYYCLQHWQFPLTFGAGTKVELK
notes: Caninized antibody
B11: Ab23 (antibody, V domains shown)
VH: EVQLVQSGAEVVKPGASVKVSCKTSGYSFTDYPIYWVRQAPGAGLEWIGYIDPYNGGTTYNQNFKDRVTLTADKSTSTAYMELSSLRAGDIAVYYCATAVVATDVMENWGQGTLVTVSS
VL: DIVMTQTPLSLSVSPGETASISCKASQNLRNALAWFRQKPGQSPQALIYLVSNRYPGVPDRFSGSGSGTDFTLRISRVEAEDTGVYYCLQHWQYPLTFGAGTKVELK
notes: Caninized antibody
B12: Ab8 (antibody, V domains shown)
VH: EVQLVQSGAEVKKPGASVKVSCKTSGYTFIDYPMYWVRQAPGAGLEWMGYIDPYNGATSYNQKFQGRVTLTADTSTSTAYMELSSLRAGDIAVYYCARAVVATDVMENWGQGTLVTVSS
VL: EIVMTQSPASLSLSQEERVTITCRASQSVRSALAWYQQKPGQAPKLLIYGTSNRYTGVPSRFSGSGSGTDFTFTISSLEPEDVAVYYCLQHWSYPLTFGAGTKVELK
notes: Caninized antibody
B13: Ab1 (antibody, V domains shown)
VH: EVQLVQSGAEVKKPGASVKVSCKTSGYTFIDYPMYWVRQAPGAGLEWMGYIDPYNGATSYNQNFKGRVTLTADKSTSTAYMELSSLRAGDIAVYYCATAVVATDVMENWGQGTLVTVSS
VL: EIVLTQSPASLSLSQEERVTITCKASQNVRNAVAWFQQKPGQAPKALIYLASNRYTGVPSRFSGSGSGTDFTLTISSLEPEDVADYFCLQHWNYPLTFGAGTKVELK
notes: Caninized antibody
B14: Ab5 (antibody, V domains shown)
VH: EVQLVQSGAEVKKPGASVKVSCKTSGYTFIDYPMYWVRQAPGAGLEWMGYIDPYNGATSYNQKFQGRVTLTADTSTSTAYMELSSLRAGDIAVYYCARAVVATDVMENWGQGTLVTVSS
VL: EIVMTQSPASLSLSQEERVTITCRASQNVRNALAWYQQKPGQAPKLLIYLTSNRYTGVPSRFSGSGSGTDFTFTISSLEPEDVAVYYCLQHWNYPLTFGAGTKVELK
notes: Caninized antibody
B15: Ab3 (antibody, V domains shown)
VH: EVQLVQSGAEVVKPGASVKVSCKTSGYSFTDYPIYWVRQAPGAGLEWIGYIDPYNGGTTYNQNFKDRVTLTADKSTSTAYMELSSLRAGDIAVYYCATAVVATDVMENWGQGTLVTVSS
VL: EIVMTQSPASLSLSQEERVTITCRASQNVRNALAWYQQKPGQAPKLLIYLTSNRYTGVPSRFSGSGSGTDFTFTISSLEPEDVAVYYCLQHWNYPLTFGAGTKVELK
notes: Caninized antibody
B16: Ab9 (antibody, V domains shown)
VH: EVQLVQSGAEVKKPGASVKVSCKTSGYTFIDYPMYWVRQAPGAGLEWMGYIDPYNGATSYNQKFQGRVTLTADTSTSTAYMELSSLRAGDIAVYYCARAVVATDVMENWGQGTLVTVSS
VL: DIVLTQTPLSLSVSPGETASISCKASQNVRNAVAWFRQKPGQSPQALIYLASNRYTGVPDRFSGSGSGTDFTLRISRVEAEDTGDYFCLQHWNYPLTFGAGTKVELK
notes: Caninized antibody
B17: Ab11 (antibody, V domains shown)
VH: EVQLVQSGAEVKKPGASVKVSCKTSGYTFIDYPMYWVRQAPGAGLEWMGYIDPYNGATSYNQKFQGRVTLTADTSTSTAYMELSSLRAGDIAVYYCARAVVATDVMENWGQGTLVTVSS
VL: DIVMTQTPLSLSVSPGETASISCKASQNLRNALAWFRQKPGQSPQALIYLVSNRYPGVPDRFSGSGSGTDFTLRISRVEAEDTGVYYCLQHWQYPLTFGAGTKVELK
notes: Caninized antibody

Columns and labels:
[1] = target: T1, recombinant histidine-tagged canine …; experiment: ELISA, His-tagged cIL-13 on nickel-coated plate
Protocol: In one embodiment of the present disclosure, recombinant canine IL-13 (cIL-13) protein with a histidine tag was dispensed onto nickel-coated plates (Thermo Fisher, #15442) at 100 ng/100 μL per well and incubated at room temperature for 1 hour. The plates were then washed three times with 1×PBST, and serial dilutions of the chimeric antibodies in 1×PBS were added and incubated at room temperature for 1 hour to allow antigen-antibody binding. After three washes with 1×PBST, an HRP-conjugated secondary antibody that cross-reacts with canine antibodies was diluted 1:100 in casein buffer and added at 100 μL per well, followed by incubation at 37° C. for 30 minutes. The HRP-conjugated secondary antibody used may be Jackson ImmunoResearch, #115-036-071, and the casein buffer may be Thermo Fisher Scientific, #37528; however, these examples are not intended to limit the scope of the present disclosure. After another three washes with 1×PBST, TMB was added to initiate color development, and the reaction was terminated by the addition of an equal volume of 1.0 N sulfuric acid.

[2] = target: T1, recombinant histidine-tagged canine …; experiment: cell-based or functional assay
[3] = target: T1, recombinant histidine-tagged canine …; experiment: ELISA, His-tagged cIL-13 on nickel plate
Protocol: A conventional ELISA method was used to assess the antigen reactivity of the caninized antibodies. The inventors of the present invention coated 96-well nickel plates with His-tagged cIL-13 at a concentration of 1 μg/mL and incubated the plates at room temperature for 1 hour. Wells were washed three times using 200 μL of wash buffer per well; the wash buffer consisted of 1×PBS containing 0.1% Tween-20. In one embodiment of the present disclosure, diluted antibodies were added to the wells at 100 μL per well and incubated again at room temperature for 1 hour. The dilution buffer used was a 1:1 mixture of 25 mL of 1× casein solution and 25 mL of 1×PBS. Next, 50 μL of HRP-conjugated goat anti-human IgG was diluted in 10 mL of dilution buffer and dispensed at 100 μL per well, followed by incubation at room temperature for 1 hour. The wells were then washed three times with 200 μL of wash buffer. TMB substrate (50 μL per well) was added. The plates were incubated at room temperature for 10 minutes. The reaction was stopped by adding 50 μL per well of 1 N sulfuric acid as a stop solution, and absorbance was measured at 450 nm using a spectrophotometer.

Row | Binder | EC50 [1] | TF-1 cell proliferation inhibition IC50 [2] [nM] | EC50 [3] [µg/mL]
1 | B1 | 0.162 µg/mL and 1.08 nM |  | 
2 | B2 |  | 71.5 | 0.0572
3 | B3 |  |  | 0.0819
4 | B4 |  | 0.98 | 0.137
5 | B5 |  |  | 0.0782
6 | B6 |  | 1.13 | 0.122
7 | B7 |  |  | 0.246
8 | B8 |  |  | 1.78
9 | B9 |  | 4.09 | 0.134
10 | B10 |  |  | 4.39
11 | B11 |  | 35.2 | 0.108
12 | B12 |  |  | 12.4
13 | B13 |  |  | 0.0564
14 | B14 |  | 34.2 | 0.0765
15 | B15 |  | 52.7 | 0.0459
16 | B16 |  |  | 0.0926
17 | B17 |  |  | 0.111

Reference: patent US20260234238A1 (GEOVISTA, published 2026)
